target: PP2A:B55 holoenzyme (PP2Aa, B55, PP2Ac) (UniProt P30153)
Sequence (P30153 9-589, chain 1 of 3): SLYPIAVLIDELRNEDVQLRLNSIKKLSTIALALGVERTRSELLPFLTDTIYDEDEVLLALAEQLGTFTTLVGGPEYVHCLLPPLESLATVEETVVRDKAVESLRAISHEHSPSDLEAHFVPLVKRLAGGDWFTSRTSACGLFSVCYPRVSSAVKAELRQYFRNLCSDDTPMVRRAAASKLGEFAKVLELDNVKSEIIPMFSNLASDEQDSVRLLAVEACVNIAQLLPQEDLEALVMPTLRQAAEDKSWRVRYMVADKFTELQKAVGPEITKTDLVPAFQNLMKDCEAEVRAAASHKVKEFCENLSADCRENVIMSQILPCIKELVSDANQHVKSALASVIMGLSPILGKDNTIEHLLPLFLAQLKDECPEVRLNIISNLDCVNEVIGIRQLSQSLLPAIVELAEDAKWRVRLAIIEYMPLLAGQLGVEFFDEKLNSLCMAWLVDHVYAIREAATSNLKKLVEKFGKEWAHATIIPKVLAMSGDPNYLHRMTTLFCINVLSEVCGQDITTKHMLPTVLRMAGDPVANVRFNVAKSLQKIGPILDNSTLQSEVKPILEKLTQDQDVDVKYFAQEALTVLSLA
Sequence (P63151 whole entry, chain 2 of 3, further chain): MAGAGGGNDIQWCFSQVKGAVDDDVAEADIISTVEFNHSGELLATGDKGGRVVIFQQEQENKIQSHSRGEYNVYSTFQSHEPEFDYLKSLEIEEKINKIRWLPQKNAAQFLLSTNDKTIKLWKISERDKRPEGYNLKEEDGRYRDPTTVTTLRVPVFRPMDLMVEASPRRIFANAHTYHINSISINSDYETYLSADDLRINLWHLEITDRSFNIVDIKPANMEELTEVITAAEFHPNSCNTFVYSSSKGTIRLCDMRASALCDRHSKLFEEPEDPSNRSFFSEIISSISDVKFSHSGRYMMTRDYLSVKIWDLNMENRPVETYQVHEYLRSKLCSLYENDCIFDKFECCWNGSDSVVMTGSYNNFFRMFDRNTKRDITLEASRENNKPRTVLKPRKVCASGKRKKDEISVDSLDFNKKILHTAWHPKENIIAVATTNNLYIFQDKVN
Sequence (P67775 whole entry, chain 3 of 3, further chain): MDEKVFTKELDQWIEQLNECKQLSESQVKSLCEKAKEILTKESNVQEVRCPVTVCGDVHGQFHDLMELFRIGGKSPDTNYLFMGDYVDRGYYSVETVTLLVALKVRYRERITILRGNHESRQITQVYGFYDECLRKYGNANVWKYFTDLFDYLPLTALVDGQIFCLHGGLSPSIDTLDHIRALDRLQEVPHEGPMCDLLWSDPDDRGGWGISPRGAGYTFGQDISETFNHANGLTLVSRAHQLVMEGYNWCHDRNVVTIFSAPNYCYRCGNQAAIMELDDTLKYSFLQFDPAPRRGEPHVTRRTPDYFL

Compared with FAM122AID R105L (domain or fragment), “FAM122AID E104A/S120C (domain or fragment)” is lower in inhibition of PP2A:B55 phosphatase activity (DiFMUP), against wild type: 11 fold for the first, 2 fold for the second.

Work on FAM122AID V107G (domain or fragment) yielded an inhibition of PP2A:B55 phosphatase activity (DiFMUP), against wild type of 6 fold.

— PMC10765524
